B2: BAF60A^YLD+SWIB (BAF60A residues 144-407) (domain or fragment, human, UniProt Q96GM5 144-407, looked up)
chain: SQAYMDLLAFERKLDQTIMRKRLDIQEALKRPIKQKRKLRIFISNTFNPAKSDAEDGEGTVASWELRVEGRLLEDSALSKYDATKQKRKFSSFFKSLVIELDKDLYGPDNHLVEWHRTATTQETDGFQVKRPGDVNVRCTVLLMLDYQPPQFKLDPRLARLLGIHTQTRPVIIQALWQYIKTHKLQDPHEREFVICDKYLQQIFESQRMKFSEIPQRLHALLMPPEPIIINHVISVDPNDQKKTACYDIDVEVDDTLKTQMNSF

Test [1] concerns the target B2. In words: ITC. (In general: In ITC the heat of successive injections is recorded.)
For test [2], the target named is MBP-tagged full-length PU.1 (human, UniProt P17947 1-270). Description: ITC.
A further test addresses PU.1[61–270] (human, UniProt P17947 61-270). Description: ITC.
Another test addresses PU.1^FL S75A (human, UniProt P17947 1-270, S75A). Description: fluorescence polarisation.
For test [3], the target named is B2. Description: fluorescence polarisation. Background: Polarisation of emitted light reports the rotation of a fluorescent probe.
Test [4] deals with B2. In words: fluorescence polarisation. The source holds these as a separate data set.

B1: PU.1[1–117] (domain or fragment, human, UniProt P17947 1-117, looked up)
chain: MLQACKMEGFPLVPPPSEDLVPYDTDLYQRQTHEYYPYLSSDGESHSDHYWDFHPHHVHSEFESFAENNFTELQSVQPPQLQQLYRHMELEQMHVLDTPMVPPHPSLGHQVSYLPRM
As a reminder, the Kd is a measure of binding affinity in units of concentration. In test [1], B1 registered a Kd of 2800 nM.
As usually defined, the stoichiometry N is a count of units in the complex or per binding partner. In the case of B2, the Kd in test [2] was determined as 1260 nM; with PU.1[61–270] it was 3230 nM. For the same molecule, the “stoichiometry N” value in test [2] was found to be 1. The binding result in the test with PU.1^FL S75A is “binds”.
Molecule SEFESFAENNFTELQSVQPPQLQQLYRHMELEQMHVLDTPM (peptide, UniProt P17947 60-100, looked up) [PU.1[60–100]] came in with a Kd in test [1] of 1250 nM.
Molecule CEFESFAENNFTELQSVQPPQLQQLYRHMELEQMHVLDTPM (peptide, UniProt P17947 60-100, looked up, BODIPY TMR C5 maleimide on the cysteine introduced at position 60) [PU.1[60–100]^TMR] displayed a Kd in test [3] of 920 nM. This counts as sub-micromolar.
Regarding CEFESFAENNFTELQSVQPPQLQQLYRHMELEQMHVLDTPM (peptide, UniProt P17947 60-100, looked up) [PU.1^60C-100], the binding result in test [4] is listed as “binds”.
What is called IC50 is the point on the concentration scale where inhibition reaches its midpoint. A low value points to greater potency. With FTELQSVQPPQLQQLYRHMELEQMHVLDTPM (peptide, UniProt P17947 70-100, looked up) [PU.1[70–100]], the Kd in test [1] was 2570 nM. The molecule also came in with an IC50 in test [4] of 2370 nM.

Values taken from publication doi:10.1101/2025.08.01.667454 (bioRxiv, 2025).
